Here are results for one molecule from patent WO2019006280A1 (dated 2019).

The test deals with T1, cell-surface CD33 on the CD33-positive AML cell line MV4-11 (UniProt P20138 18-364).
T1 construct: whole, on cells; Endogenous CD33 of the MV4-11 cell line; also called cell-surface expressed CD33; CD33-postive MV4-11 cells
The test is described as follows: flow cytometry on MV4-11 cells, binder at 10 ug/ml, PE anti-flag.

T1 sequence (P20138 18-364 limits assumed): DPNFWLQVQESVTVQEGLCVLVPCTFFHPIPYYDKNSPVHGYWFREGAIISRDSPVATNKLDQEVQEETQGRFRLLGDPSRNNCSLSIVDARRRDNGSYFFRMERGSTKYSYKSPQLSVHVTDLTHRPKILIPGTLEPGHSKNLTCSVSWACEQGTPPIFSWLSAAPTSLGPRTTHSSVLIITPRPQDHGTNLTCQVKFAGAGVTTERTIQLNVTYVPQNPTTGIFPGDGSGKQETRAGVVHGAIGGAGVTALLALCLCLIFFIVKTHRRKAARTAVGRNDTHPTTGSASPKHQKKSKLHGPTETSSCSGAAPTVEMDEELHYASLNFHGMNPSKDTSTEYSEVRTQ

B1: ml033-2 VH domain antibody (VHH)
VHH: EVQLVESGGGLVQPGGSLRLSCAASGFTFSSYGMSWVRQAPRKGLEWIGEINHSGSTNYNPSLKSRVTISRDNSKNTLYLQMNSLRAEDTATYYCARPLNYYYYYMDVWGKGTTVTVSS
notes: also called single domain antibody ml 033-2; m1033-2; not shown: His and Flag tags
Take B1: the binding result was “binds”.
